From patent US7419670B2, “Method of treating arthritis with SERP-1 and an immunosuppressant” (Viron Therapeutics, Inc., priority 2000, dated 2008)

What was measured:
[1] = tested on: Collagen-induced Arthritis (CIA) in Rats; assay: CIA in rats: blinded radiographic scoring of the ankle joint at study termination; assay type: in vivo, rats (Louvain); conditions: mean ± SD; control group 4.27±1.68; p=0.02
Method: Twenty four rats (Louvain) weighing 125-150 g were housed at the UCLA vivarium facility and were fed standard laboratory chow and water.
Type II collagen, (CII) was prepared by pepsin treatment of chick sternal cartilage or was purchased from Genzyme (Boston, Mass.). Rats were anesthetized with ether and were immunized intradermally at several sites on the back, with 0.5 mg native CII solubilized in 0.1M acetic acid and emulsified in FIA (Difco, Detroit, Mich.). The signs and symptoms of rheumatoid arthritis developed over a period of ten days after immunization with collagen. (Oliver and Brahn, (1996) J. Rheumatol. 23, S44-56-60, incorporated herein by reference).
Cyclosporin at (4 mg/kg/d; sc) was administered by osmotic pump for the duration of the study. […]
The incidence and severity of chronic arthritis in SERP-1/CsA treated and untreated rats was evaluated via a number of study endpoints. During the experimental phase of the study, the individual hind limbs of each rat was evaluated daily and arthritis severity was quantified by assigning a score (0=normal, 4=maximum/hindpaw) based on increasing levels of swelling and periarticular erythema. The daily, arthritic severity scores for each rat were recorded from disease onset (day 10) until study termination (Table 1). […]

[2] = tested on: intimal fatty cellular proliferation associated with restenosis; conditions: rabbits following balloon angioplasty; cited from earlier work

B1: SERP-1: viral serine protease inhibitor produced by malignant rabbit fibroma virus and myxoma virus; sequence of SEQ ID NO: 1 (protein, listed as Myxoma virus)
chain: MKYLVLVLCLTSCACRDIGLWTFRYVYNESDNVVFSPYGLTSALSVLRIAAGGNTKREIDVPESVVEDSDAFLALRELFVDASVPLRPEFTAEFSSRFNTSVQRVTFNSENVKDVINSYVKDKTGGDVPRVLDASLDRDTKMLLLSSVRMKTSWRHVFDPSFTTDQPFYSGNVTYKVRMMNKIDTLKTETFTLRNVGYSVTELPYKRRQTAMLLVVPDDLGEIVRALDLSLVRFWIRNMRKDVCQVVMPKFSVESVLDLRDALQRLGVRDAFDPSRADFGQASPSNDLYVTKVLQTSKIEADERGTTASSDTAITLIPRNALTAIVANKPFMFLIYHKPTTTVLFMGTITKGEKVIYDTEGRDDVVSSV
In the case of B1, the “joint erosions (radiographic score)” value [1] is listed as 2.58±1.88 and the “intimal fatty cellular proliferation associated with restenosis” value [2] is listed as “decrease”.
